Measured values taken from the supplement of paper PMC9170038.

test system: MS2 coat protein; test: apparent KD of MS2 coat protein; higher = weaker reporter binding; conditions: Eterna round: R107; input ligand: none
In short: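 Apparent KD per design is the median of normalised cluster binding-curve fits. Designed RNA switches transcribed on-chip from Illumina sequencing clusters were titrated with SNAP-549-labelled MS2 coat protein in twofold steps from 0.7 or 1.5 nM to 3 µM, with 0.8–1.5 h down to 10–20 min per step. Buffer: 100 mM Tris-HCl pH 7.5, 80 mM KCl, 4 mM MgCl2, without or with constant ligand.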

| Sequence | apparent KD of MS2 coat protein [µM] |
| --- | --- |
| AUACAUGAGGAUCACCCAUGUAUGGAUGAAGGAGCGACCAGAGGGUCAGGUAGGUCGCAUCACAUGAGGAUCACCCAUGUAGAAA [DOUBLE!!! :-D #11] | 0.0234 |
| GUCGUGGUCGGAAGGAGCGACAUGAGGAUCACCCAUGUCUCCCGUUAUGGGAGUUCCUUAGGUCAGGUAGGUCGCCGACUGCGGC [#1 Exclusion - Arginine B Attempt #23 (Inspired by Omei)] | 0.199 |
| UACAUGAGGAUCACCCAUGUAUUGCCGGUACGAGGACCGGUACGGCCGCCACUCGGGACAUGAGGAUCACCCAUGUGCUGCUAUU [Same State Trypophan A GF 23] | 0.0444 |
| CGAAAGCUCCUUAUGUGCUUUCGACUGGAAGGAGCGAGCGAAAGCUCAGGUAGGUCGCCAGAAACAUGAGGAUCACCCAUGUAAU [(A)''-(M)'-(A)'(Arg1)-(Arg2)-(M1)-(M2)_Design9] | 0.018 |
| UGUAUGUGAUCUGAUACCAGUCCAACUGGUAAAUCAUGAGGAUCACCCAUGGAAAAUUGGGACCCUUGGCAGCAGAUCGCAUACU | 0.452 |
| GGACUAACCAGAAGGAGCGACACAAGCAGAAACUGCAAUCCUCCGCACGAGGAUCACCCGUGUCAGGUAGGUCGCUGGUUAGUCG [ArgBX 28] | 0.0637 |
| UUUUAGCAUCGAAGGAGCGCUGGUGAAACUGACUAUGGAACAUGAGGAUCACCCAUGUGCUAGCAGGUAGGUCGCGAUGCUAUUU [SSAB NP+V+V2 #10] | 0.0176 |
| GCUAGGUCUACGGCCGCCACUAGACGUGGGUAAGACAUGAGGAUCACCCAUGUACUACAGGCGCAUAGGACCGGGUAGACCUAGC [SSTB NP+V+V2 #11 Same Structure] | 0.0789 |
| AUAACAUGAGGAUCACCCAUGUAAGCUGAAGGAGCGGACGAAAGUCCAGGUAGGUCGCAGCACUCCUUCAACAUGGGAGAGGGAG [(M1)-(M2)-(Arg1)-(Arg2)-(A)'-(M)'-(A)''_Design1] | 0.0642 |
| UGUAUGUGAUCUGAUACCAGUCCAACUGGUAAAGCAUGAGGAACACCCAUGCAAAAUUGGGACCCUUGGCAGCAGAUCGCAUACU | 0.247 |
| GGAUAGGACAGAAGGAGCGUGAGAUGCAAAGCUUCAUUCCUCACAUGAGGAUCACCCAUGUCACAGGUAGGUCGCUGUCCUAUCG [#19 Exclusion - Arginine B] | 0.102 |
| GGGAGAUGAAAAGAUUGAGCUAAAACAGAAGGAGCGUGAAUUAACACAGGUAGGUCGCUGACAACAUGAGGAUCACCCAUGUAUU [Same State Arginine A GF4] | 0.0196 |
| AAAUGAGGAUCACCCAUGUAACAACGGGAAGGAGCGCCAAACAAGGCAGGUAGGUCGCCCACAUGAGGAUCACCCAUGUGUUGGG [Exclusion Arginine A GF 28] | 0.137 |
| ACAUGAGGAUCACCCAUGUAGAAAGAUCCUCGAGGACCGGUACGGCCGCCACUCGAGUGGCAGUGUGUGCAGAAAAUGCGCGCGC | 0.0509 |
| GUAUAUUAUAGAAGGAGCGUCGAAAAUGGGUAAACAUGAGGAUCACCCAUGUAAAGGGAACGACAGGUAGGUCGCUAUAAUAUAC [AstromonsSSArgB#14] | 0.218 |
| AGACAUGAGGAUCACCCAUGUAGCAUGGAUACCAGAUGCAGAUUUAUCCCUUGGCAGCUGUGGUAAAGUGAUGCAUUGCUCCUAG [Exclusion - Theophylline A (Freestyle 6)] | 0.0226 |
| CCUGAUGAGUCGGCCGCCACUCCAGUUGUAUUACAGGUUUUCGUAGACAUGAGGAUCACCCAUGUGAGGACCGGGACACACACAG [theeternabot_exclusion_MS2_Trp_B_21] | 0.0113 |
| UUGGGUUUGUGAAGGAGCGGGAAAGUUAUAUAGUUAAUCCUAACAUGAGGAUCACCCAUGUCCCAGGUAGGUCGCGCGGGUUUGG [12.P] | 0.0475 |
| CAGGUCAGGGCGGCCGCCACUGUGGCUACGGUACAUGAGGAUCACCCAUGUUUGUGGUUGAUCUACAGGACCGGGCCCUAACACG [Beabe] | 0.43 |
| GUCUUGGGAUCGGCCGCCACUACAUGAGGAUCACCCAUGUGGACAAAUAGGGUUGUUAAGCUCGGUAGGACCGGGAUUCGGACAU [Oncetexeza] | 0.026 |
| GGGACAUCGGGAAGGAGCGCAUCCAAACCACACAUGAGGAUCACCCAUGUAUAAAUAUGCAUGCAGGUAGGUCGCCCGGUGUCUC [Ersoatus] | 0.104 |

same assay, conditions: Eterna round: R107; input ligand: theophylline 20 uM

| Sequence | apparent KD of MS2 coat protein [µM] |
| --- | --- |
| GUAUACAUGAGGAUCACCCAUGUACCAGAAGGAGCGCUGGAAACAGCAGGUAGGUCGCUGGUAGGUCCUCUAUCUAGACGUUCUU [EAA NP+V+V2 #6] | 0.167 |
| AUACAUGAGGAUCACCCAUGUAUGGAUGAAGGAGCGACCAGAGGGUCAGGUAGGUCGCAUCACAUGAGGAUCACCCAUGUAGAAA [DOUBLE!!! :-D #11] | 0.0252 |
| GUCGUGGUCGGAAGGAGCGACAUGAGGAUCACCCAUGUCUCCCGUUAUGGGAGUUCCUUAGGUCAGGUAGGUCGCCGACUGCGGC [#1 Exclusion - Arginine B Attempt #23 (Inspired by Omei)] | 0.17 |
| UACAUGAGGAUCACCCAUGUAUUGCCGGUACGAGGACCGGUACGGCCGCCACUCGGGACAUGAGGAUCACCCAUGUGCUGCUAUU [Same State Trypophan A GF 23] | 0.0498 |
| CGAAAGCUCCUUAUGUGCUUUCGACUGGAAGGAGCGAGCGAAAGCUCAGGUAGGUCGCCAGAAACAUGAGGAUCACCCAUGUAAU [(A)''-(M)'-(A)'(Arg1)-(Arg2)-(M1)-(M2)_Design9] | 0.0255 |
| UACAUGAGGAUCACCCAUGUAUACAUGGAUACCAGCGACAAUGGGCGCCCUUGGCAGCUAGUGGAUGGAGGGUGGCCACAGUACU [Exclusion Theophyline A GF5] | 0.0531 |
| AAUAUAAGUGUAAUUAUAUUUAUAUCUGAUACCAGACUCUCAUGUGUCCCUUGGCAGCAGUUACAUGAGGAUCACCCAUGUAUUA [JR_Nu_SSTheophyA_Sub025] | 0.0676 |
| UGUAUGUGAUCUGAUACCAGUCCAACUGGUAAAUCAUGAGGAUCACCCAUGGAAAAUUGGGACCCUUGGCAGCAGAUCGCAUACU | 0.49 |
| GGACUAACCAGAAGGAGCGACACAAGCAGAAACUGCAAUCCUCCGCACGAGGAUCACCCGUGUCAGGUAGGUCGCUGGUUAGUCG [ArgBX 28] | 0.0968 |
| CAUACUUGAUCCUAUGAGCCUAUUUGUGAUACCAGCAUCUAAAUUUGCCCUUGGCAGCACUAACAUGAGGAUCACCCAUGUUAUA [JR_Nu_ExcTheophyA_Sub028] | 0.0425 |
| AUGUCAUUGGUGUAGCUGUGAAGUGGCGAUACCAGCGUGGAAACACGCCCUUGGCAGCGCCAAAACAUGAGGAUCACCCAUGUUA [#23 Exclusion-TheophyllineA] | 0.0563 |
| CUACAUUUGUAGAAACCGGUCAACAAUAUUCGAGGACCGGUACGGCCGCCACUCGUAUAAUUUAAUACAUGAGGAUCACCCAUGU [Tryptophan A 4] | 0.0182 |
| UUUUAGCAUCGAAGGAGCGCUGGUGAAACUGACUAUGGAACAUGAGGAUCACCCAUGUGCUAGCAGGUAGGUCGCGAUGCUAUUU [SSAB NP+V+V2 #10] | 0.0207 |
| AGUUCCAGGUCGGCCGCCACUGGCGUGGCCGGUCCUCGGACUUACAUGAGGAUCACCCAUGUGAACAGGACCGGGACCGCAUGGG [Exclusion Tryptophan B GF 25] | 0.046 |
| GCUAGGUCUACGGCCGCCACUAGACGUGGGUAAGACAUGAGGAUCACCCAUGUACUACAGGCGCAUAGGACCGGGUAGACCUAGC [SSTB NP+V+V2 #11 Same Structure] | 0.0745 |
| CGUAUUGGAAACAGUACGAGUGAUCCGGUCCGAGGACCGGUACGGCCGCCACUCGAUAUAAAUAAACAUGAGGAUCACCCAUGUA [Ex Tryptophan A 12] | 0.0169 |
| CAUGACAUGAGGAUCACCCAUGUAUCCAGUCGAGGACCGGUACGGCCGCCACUCGGUGCCUUCAAAUUUACAGACAGGUGACAGG [theeternabot_sameState_MS2_Trp_A_30] | 0.0429 |
| UAAACUACACAUGAGGAUCACCCAUGUGGCCGAGGACCGGUACGGCCGCCACUCGUGUGUUAAUAAAAGAACUGCAAGGUUCUGU [Laorat] | 0.419 |
| AUAACAUGAGGAUCACCCAUGUAAGCUGAAGGAGCGGACGAAAGUCCAGGUAGGUCGCAGCACUCCUUCAACAUGGGAGAGGGAG [(M1)-(M2)-(Arg1)-(Arg2)-(A)'-(M)'-(A)''_Design1] | 0.0598 |
